# Results from patent US20230118024A1 (Chugai, published 2023).
# B1: DQN0271hh (antibody, human IgG1, kappa, V domains shown)
# VH: QSLEESGGGLVKPGASLTLTCKASGFSFSSGYYMCWVRQAPGKGLEWIACIYAGSPDLTYYATWAKGRLTISTTSSTTVTLQLTSLTAADTATYFCARDPGNWGGYDDVRLWGPGTLVTVSS
# VL: AQVLTQTPSPVSAAVGGTVTISCQSSQSIYSNYLSWFQQKTGQPPKLLIYRASTLASGVPSRFKGSGSGTEFTLTISGVECDDAATYYCQGYYSGAIWTFGGGTKVEIKR
# notes: also called DQN0271Lh
# B2: DQN0370hh (antibody, human IgG1, kappa, V domains shown)
# VH: QSLEESGGGLVKPGGPLTLTCTASGFSFSSAYYMCWVRQAPGKGLEWIACIYVGSGSTYYTSWAKGRFTISKVSSTTMTLQMTSLTAADTATYFCARDPLIYYYYGELNLWGPGTLVTVSS
# VL: AVVLTQTASPVSAPVGGTVTIKCQASEDIYSNLAWYQQKPGQRPKVLIYSASTLASGVSSRFKGSRSGTEYTLSITDLGCADAATYYCQAYYDIGGVTFGGGTKVEIKR
# notes: also called DQN0370Lh
# B3: DQN0344xx (antibody, human IgG1, kappa, V domains shown)
# VH: QSLEESGGGLVKPGGTLTLTCTASGFSFSSSYWMCWVRQAPGKGLEWVACVYGGSDTTYYASWTKGRFTISKGSSTTVALQVTSLTAADTATYFCARDPLNYYYYGELNLWGPGTLVTVSS
# VL: AVVLTQTASPVSAAVGGTVTIRCQATENIYSGLAWYQQKPGQPPKVLIYYVSTLASGVPSRFKGSGSGTEYTLTISGVQCDDAATYYCQTYHDISNVTFGGGTKVEIKR
# notes: also called DQN0344Hx; DQN0344Lx
# B4: DQN0356bb (antibody, human IgG1, kappa, V domains shown)
# VH: QEQLVESGGGLVKPEGSLTLTCTASGFSFSSDYSVCWVRQAPGKGLEWIGCIYTGSDITYYASWAKGRFTISKTSSTTVTLQMTSLTAADTATWFCARSWNGYGGYADLWGPGTLVTVSS
# VL: AYDMAQTPASVEVAVGGTVTIKCQASQSIDNYLAWYQQKPGQPPKLLIYWASTLASGVSSRFKGSGSGTQFSLTISDLECADAATYYCQQYYSNSNVVNTFGGGTKVEIKR
# notes: also called DQN0356Hb; DQN0356Lb
# Key:
# [1] = target: T1, HLA-DQ2.5/33mer gliadin peptide complex on Ba/F3 cells (human; wheat); assay: cell-based or functional assay
# [2] = target: T2, HLA-DQ2.5/secalin 1 peptide complex on Ba/F3 cells (human; rye); assay: FACS
# T2 construct: also called Ba/F3-HLA-DQ2.5/secalin 1 peptide
# [3] = target: T3, HLA-DQ2.5/CLIP peptide complex on Ba/F3 cells (human); assay: FACS
# T3 construct: also called Ba/F3-HLA-DQ2.5/CLIP peptide
# [4] = target: T4, HLA-DQ2.5/secalin 2 peptide complex on Ba/F3 cells (human; rye); assay: FACS
# T4 construct: also called Ba/F3-HLA-DQ2.5/secalin 2 peptide
# [5] = target: T1, HLA-DQ2.5/33mer gliadin peptide complex …; assay: FACS
# [6] = target: T5, HLA-DQ2.5 on HLA-DQ2.5 positive PBMC-B cells (human, UniProt P01909 24-254; P01920 33-261); assay: FACS
# T5 construct: also called DQ2.5 + PBMC; HLA-DQ2.5+PBMC B cell
# T5 MHC II alpha: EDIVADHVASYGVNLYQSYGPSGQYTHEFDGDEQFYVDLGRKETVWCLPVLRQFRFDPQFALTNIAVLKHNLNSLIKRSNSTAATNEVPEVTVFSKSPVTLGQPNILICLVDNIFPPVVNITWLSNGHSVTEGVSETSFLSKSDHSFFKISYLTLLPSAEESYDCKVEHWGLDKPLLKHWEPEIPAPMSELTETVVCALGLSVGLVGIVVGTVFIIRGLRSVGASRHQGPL
# T5 MHC II beta: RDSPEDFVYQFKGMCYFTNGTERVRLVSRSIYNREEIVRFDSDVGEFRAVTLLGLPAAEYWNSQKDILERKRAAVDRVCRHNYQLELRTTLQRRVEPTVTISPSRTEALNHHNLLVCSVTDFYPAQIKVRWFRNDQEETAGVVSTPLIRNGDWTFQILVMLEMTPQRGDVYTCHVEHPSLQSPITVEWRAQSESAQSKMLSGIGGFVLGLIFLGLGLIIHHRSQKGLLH
# [7] = target: T6, HLA-DQ2.5/alpha 1b gliadin peptide complex on Ba/F3 cells (human; wheat); assay: FACS
# T6 construct: also called Ba/F3-HLA-DQ2.5/alpha 1b gliadin peptide
# [8] = target: T7, HLA-DQ2.5/omega 1 gliadin peptide complex on Ba/F3 cells (human; wheat); assay: FACS
# T7 construct: also called Ba/F3-HLA-DQ2.5/omega 1 gliadin peptide
# [9] = target: T8, HLA-DQ2.5 on Ba/F3 cells (not in the form of a complex with a linked peptide) (human, UniProt P01909 24-254; P01920 33-261); assay: FACS
# T8 construct: also called Ba/F3-HLA-DQ2.5; No peptide
# T8 MHC II alpha: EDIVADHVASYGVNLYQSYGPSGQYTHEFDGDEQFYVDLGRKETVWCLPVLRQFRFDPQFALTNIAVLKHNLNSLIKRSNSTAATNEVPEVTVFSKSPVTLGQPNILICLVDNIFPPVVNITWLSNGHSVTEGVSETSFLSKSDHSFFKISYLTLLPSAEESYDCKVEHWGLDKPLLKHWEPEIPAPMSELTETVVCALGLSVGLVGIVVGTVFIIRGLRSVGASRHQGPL
# T8 MHC II beta: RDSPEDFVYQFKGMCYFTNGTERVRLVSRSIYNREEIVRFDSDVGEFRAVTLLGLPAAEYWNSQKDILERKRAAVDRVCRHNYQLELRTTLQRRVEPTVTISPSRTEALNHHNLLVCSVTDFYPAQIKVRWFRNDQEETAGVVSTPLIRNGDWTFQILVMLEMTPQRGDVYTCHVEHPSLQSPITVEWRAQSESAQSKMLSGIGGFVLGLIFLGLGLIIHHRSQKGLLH
# [10] = target: T9, HLA-DQ2.5/alpha 2 gliadin peptide complex on Ba/F3 cells (human; wheat); assay: FACS
# T9 construct: also called Ba/F3-HLA-DQ2.5/alpha 2 gliadin peptide
# [11] = target: T10, HLA-DQ2.5/alpha 1 gliadin peptide complex on Ba/F3 cells (human; wheat); assay: FACS
# T10 construct: also called Ba/F3-HLA-DQ2.5/alpha 1 gliadin peptide
# [12] = target: T11, HLA-DQ2.5/omega 2 gliadin peptide complex on Ba/F3 cells (human; wheat); assay: FACS
# T11 construct: also called Ba/F3-HLA-DQ2.5/omega 2 gliadin peptide
# [13] = target: T12, recombinant HLA-DQ2.5/33mer gliadin peptide complex (human; wheat); assay: SPR, Ab captured, 37 C, pH 7.4
# T12 construct: also called soluble HLA-DQ2.5/33mer gliadin peptide complex
# T12 alpha: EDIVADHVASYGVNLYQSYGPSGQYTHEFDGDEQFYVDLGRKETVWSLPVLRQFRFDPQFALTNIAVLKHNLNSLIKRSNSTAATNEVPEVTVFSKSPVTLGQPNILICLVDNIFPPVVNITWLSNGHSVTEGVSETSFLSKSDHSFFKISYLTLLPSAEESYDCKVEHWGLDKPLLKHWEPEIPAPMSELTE
# T12 beta: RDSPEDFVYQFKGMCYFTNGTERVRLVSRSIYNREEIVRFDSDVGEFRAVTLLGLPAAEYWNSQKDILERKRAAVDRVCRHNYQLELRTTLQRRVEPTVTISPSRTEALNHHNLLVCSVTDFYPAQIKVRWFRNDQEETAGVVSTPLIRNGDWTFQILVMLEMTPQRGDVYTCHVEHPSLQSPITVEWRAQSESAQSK
# T12 peptide: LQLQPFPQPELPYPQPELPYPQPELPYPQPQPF
Binder,IC50 (read off the curve) [1],"FIG. 30 FACS value (IC17=0, DQN0139bb=100) [2]","FIG. 30 FACS value (IC17=0, DQN0139bb=100) [3]","FIG. 30 FACS value (IC17=0, DQN0139bb=100) [4]","FIG. 30 FACS value (IC17=0, DQN0139bb=100) [5]","FIG. 30 FACS value (IC17=0, DQN0139bb=100) [6]","FIG. 30 FACS value (IC17=0, DQN0139bb=100) [7]","FIG. 30 FACS value (IC17=0, DQN0139bb=100) [8]","FIG. 30 FACS value (IC17=0, DQN0139bb=100) [9]","FIG. 30 FACS value (IC17=0, DQN0139bb=100) [10]","FIG. 30 FACS value (IC17=0, DQN0139bb=100) [11]","FIG. 30 FACS value (IC17=0, DQN0139bb=100) [12]",Kd [13]
B1,~0.3 µg/mL,65.3,3.8,70.2,106,0,80.5,79.3,0,83,91.2,68.9,6.07 nM
B2,~0.3 µg/mL,79.2,1,68.1,107,–,79.2,73.7,–,83.7,91.2,65.8,4.47 nM
B3,~0.3 µg/mL,73.9,–,60.6,106,–,75.3,68.8,–,81.9,89.7,3.7,–
B4,–,74.5,98.3,77.8,91.1,–,88,76,–,85.6,94.9,68.8,–
